Source: US20200353078A1 (AstraZeneca / MedImmune, published 2020)

Columns and labels:
[1] = molecular target: T1, Human IL-33 Flag®His (human); test: HTRF: IL-33FH binding to biotinylated ST2-Fc, IgG titrated, after 18 h pre-incubation of IgG with IL-33
T1 construct: Mature IL-33 with C-terminal FLAG 10xHis tag, from E. coli; biotinylated via free cysteines where used biotinylated; also called Mature Human IL-33_FH; human IL-33 FH
T1 chain: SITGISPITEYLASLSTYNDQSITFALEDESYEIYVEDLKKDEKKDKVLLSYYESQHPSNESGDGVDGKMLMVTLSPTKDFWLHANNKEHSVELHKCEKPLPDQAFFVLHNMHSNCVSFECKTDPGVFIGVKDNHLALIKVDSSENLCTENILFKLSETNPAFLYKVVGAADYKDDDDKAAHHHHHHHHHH

[2] = molecular target: T2, Human IL-33 (Axxora/Adipogen AG-40B-0038) (human, UniProt O95760 112-270, limits assumed); test: HTRF epitope competition: unlabelled IgG against DyLight labelled IL330101 IgG for biotinylated human IL-33
T2 construct: Bought; also called IL-33 (Adipogen); biotinylated human IL-33
T2 sequence (looked up): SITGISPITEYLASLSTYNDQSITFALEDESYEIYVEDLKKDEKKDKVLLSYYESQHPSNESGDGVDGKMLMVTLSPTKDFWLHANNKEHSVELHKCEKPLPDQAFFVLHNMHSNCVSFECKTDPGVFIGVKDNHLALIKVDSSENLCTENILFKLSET

[3] = molecular target: T2, Human IL-33 (Axxora/Adipogen …); test: cell-based or functional assay
[4] = molecular target: T1, Human IL-33 Flag®His; test: cell-based or functional assay
[5] = molecular target: T1, Human IL-33 Flag®His; test: HTRF competition, IgG titrated against biotinylated human ST2-Fc
Method in brief: (§1)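 Antibody dilution series competed with biotinylated human ST2-Fc (added from a 4 nM mix with streptavidin-XL665) for IL-33 (added from a 1.2 nM mix with anti-FLAG cryptate). Buffer was DPBS with 0.8 M KF and 0.1% BSA. Incubation ran 2 h at RT then 16 h at 4 °C, with TRF read at 620/665 nm.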

[6] = molecular target: T3, Cynomolgus IL-33 Flag®His (cynomolgus monkey); test: as above
T3 construct: C-terminal FLAG 10xHis tag, E. coli; also called Mature Cynomolugus IL-33; cyno IL-33 FH
T3 chain: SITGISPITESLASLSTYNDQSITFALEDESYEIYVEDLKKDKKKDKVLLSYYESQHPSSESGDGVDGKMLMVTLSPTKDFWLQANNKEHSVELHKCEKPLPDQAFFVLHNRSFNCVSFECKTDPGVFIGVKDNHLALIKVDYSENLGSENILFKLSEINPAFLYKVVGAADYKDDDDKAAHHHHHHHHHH
Method in brief: as §1

[7] = molecular target: T1, Human IL-33 Flag®His; test: SPR BIAcore 2000, IgG captured on Protein G', IL-33 as analyte, 1:1 Langmuir
Protocol: (§2) The binding affinity of purified IgG samples of exemplary binding members to human and cynomolgus IL-33 was determined by surface plasmon resonance using BIAcore 2000 biosensor (BIAcore AB) essentially as described by Karlsson et al., J Immunol Methods 145(1-2):229-40 (1991). In brief, Protein G′ (Sigma Aldrich, P4689) was covalently coupled to the surface of a CM5 sensor chip using standard amine coupling reagents according to manufacturer's instructions (BIAcore). The protein G′ surface was used to capture purified anti-IL-33 antibodies via the Fc domain to provide a surface density of approximately 290 RU per cycle. Human or cynomolgus IL-33 prepared in HBS-EP buffer (BIAcore AB), at a range of concentrations, between 600 nM and 18.75 nM, were passed over the sensor chip surface. The surface was regenerated using two 10 mM Glycine washes of pH 1.7 and pH 1.5 between each injection of antibody. The resulting sensorgrams were evaluated using BIA evaluation 3.1 software and fitted to a 1:1 Langmuir binding model, to provide relative binding data. The binding results (KD, Ka, and Kd) for antibodies IL330002 and IL330004 binding to human or cynomolgus IL-33 are shown in Table 8.

[8] = molecular target: T3, Cynomolgus IL-33 Flag®His; test: as above
Protocol: as §2

[9] = molecular target: T4, His10/Avi Human IL33-01 (human); test: HTRF competition: purified IgG against FLAG-His human ST2 for biotinylated IL33-01, 1 hour incubation
T4 construct: Wild type mature IL-33 with N-terminal 10xHis, Avitag and Factor Xa site; biotinylated by BirA on the Avitag where used biotinylated; reduced form unless treated; also called N-terminal His Avi IL-33; His-Avi human IL-33 wild type
T4 chain: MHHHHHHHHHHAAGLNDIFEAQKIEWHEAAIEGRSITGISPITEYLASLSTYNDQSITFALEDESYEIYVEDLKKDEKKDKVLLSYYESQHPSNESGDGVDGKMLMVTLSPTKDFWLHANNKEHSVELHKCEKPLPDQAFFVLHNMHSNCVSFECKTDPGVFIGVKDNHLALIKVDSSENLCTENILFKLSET

B1: H338L293 (SEQ ID NOs 182 and 187) (antibody, V domains shown)
VH: EVQLLESGGGLVQPGGSLRLSCAASGFTFSSYAMSWVRQAPGKGLEWVSAISPREGWQYYADSVKGRFTISRDNSKNTLYLQMNSLRAEDTAVYYCVRVVAGYFDSWGRGTLVTVSS
VL: SYELMQPPSVSVSPGQTARITCSGDALPKQYAHWYQQKPGQAPVLVIYKDTERPSGIPERFSGSSSGTTVTLTISGVQAEDEADYYCMSSDPSGASRVFGGGTKLTVL
notes: IgG; also called H338L293_fgl; H338L293 IgG
IC50 (read off the curve) [1]: ~30 nM

B2: IL330259 IgG1 (antibody, V domains shown)
VH: EVQLLESGGGLVQPGGSLRLSCAASGFTFSSYAMSWVRQAPGKGLEWVSASTPWQGSTYYADSVKGRFTISRDNSKNTLYLQMNSLRAEDTAVYYCVRVVAGYFDSWGRGTLVTVSS
VL: SYVLTQPPSVSVSPGQTARITCSGDALPKQYAHWYQQKPGQAPALVIYKDTERPSGIPERFSGSSSGTTVTLTISGVQAEDEADYYCQSADSSGASRVFGGGTKVTVL
notes: IgG1
IC50 (read off the curve) [2]: ~0.1 nM

B3: IL330004 IgG1 (antibody, V domains shown)
VH: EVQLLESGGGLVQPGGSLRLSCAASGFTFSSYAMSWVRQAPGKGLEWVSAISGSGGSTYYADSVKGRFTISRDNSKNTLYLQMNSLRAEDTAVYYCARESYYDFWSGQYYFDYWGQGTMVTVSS
VL: SYELTQPPSVSVSPGQTASISCSGDKLGDKFASWYQQKPGQSPVLIIYQDRKRPSGIPERFSGSNSGNTATLTISGTQTTDEADYYCQAWDGSLYVFGTGTKLTVL
notes: Human IgG1, lambda constant
IC50, Huvec p65/RelA NFκB nuclear translocation [3]: 12 nM | IC50, human ST2 transfected HeLa NFkB luciferase reporter assay [4]: 23 nM | IC50 [5]: 9 nM | IC50 [6]: 170 nM | Kd [7]: 6 nM | koff [7]: 0.0011 s⁻¹ | kon [7]: 196000 M⁻¹ s⁻¹ | Kd [8]: 365 nM | koff [8]: 0.00458 s⁻¹ | kon [8]: 12500 M⁻¹ s⁻¹ | IC50 (read off the curve) [9]: ~1 nM
